In publication PMC7265302:

Biological target: MavC, wild type (Legionella pneumophila) (UniProt Q5ZTL4)
Assay: ITC

For “Lpg2149, wild type (from UniProt Q5ZTL2 1-119) (natural protein)”, the Kd was 0.57 nM.
